Target: interleukin 3 receptor α (IL-3Rα) chain on human pDCs and basophils (human) (UniProt P26951)
Experiment: cell-based or functional assay

UniProt P26951, sequence (P26951 20-378): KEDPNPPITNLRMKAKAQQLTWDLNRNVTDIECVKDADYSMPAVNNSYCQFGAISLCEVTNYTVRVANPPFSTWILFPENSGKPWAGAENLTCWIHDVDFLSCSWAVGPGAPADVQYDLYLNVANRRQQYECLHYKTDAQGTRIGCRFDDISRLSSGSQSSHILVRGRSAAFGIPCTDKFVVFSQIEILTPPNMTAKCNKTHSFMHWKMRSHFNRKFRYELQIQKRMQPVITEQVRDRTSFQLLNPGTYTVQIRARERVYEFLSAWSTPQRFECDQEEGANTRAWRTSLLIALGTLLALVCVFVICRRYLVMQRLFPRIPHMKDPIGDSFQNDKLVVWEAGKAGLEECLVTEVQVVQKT

pDCs (% of total cells remaining in culture), 4h, 10 µg/ml antibody on human PBMC (% of total cells remaining in culture): 0.1 | pDCs (% of total cells remaining in culture), 24h, 10 µg/ml antibody on human PBMC (% of total cells remaining in culture): 0.02 | pDCs (% of total cells remaining in culture), 48h, 10 µg/ml antibody on human PBMC (% of total cells remaining in culture): 0.005
Substance: ch7G3 (chimeric version of 7G3 with a human IgG1 constant domain) (antibody)

From patent EP2536430B1
